Assay results published in patent US7223734B2, “Plasma protein-binding ligands” (The American National Red Cross, priority 2002, dated 2007).
Non-standard residues stand in square brackets, D forms with d. No end group written: not given here.

Experiments:
API [1] = target: T1, API (Homo sapiens, UniProt P01009); test: Purification of API from F1-Apo-depleted plasma on AKVSKG column (Example 7); type: binding
T1 construct: from tissue; host or cells: human plasma (whole, fibrinogen-depleted or F1-Apo-depleted)
T1 sequence (P01009 25-418): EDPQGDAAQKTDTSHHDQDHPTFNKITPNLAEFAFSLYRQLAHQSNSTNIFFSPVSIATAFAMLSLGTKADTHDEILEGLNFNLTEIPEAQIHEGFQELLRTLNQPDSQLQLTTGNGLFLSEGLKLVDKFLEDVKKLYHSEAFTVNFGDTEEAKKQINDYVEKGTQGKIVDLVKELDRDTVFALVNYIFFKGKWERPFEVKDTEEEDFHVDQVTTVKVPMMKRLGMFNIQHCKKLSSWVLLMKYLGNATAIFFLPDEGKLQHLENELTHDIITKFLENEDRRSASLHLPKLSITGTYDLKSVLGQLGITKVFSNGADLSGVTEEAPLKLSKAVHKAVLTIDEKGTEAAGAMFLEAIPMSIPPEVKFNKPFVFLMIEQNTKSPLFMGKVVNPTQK
Protocol: (§1) Conditions that prevented the binding of albumin from F1-Apo depleted plasma were identified. The capture of albumin by AKVSKG (SEQ ID NO: 45) and D-WWLHIN (SEQ ID NO: 33) can be prevented in the presence of 50 mM caproic acid or 1.0–2.2 M NaCl, respectively. An example for API purification with AKVSKG (SEQ ID NO: 45) is provided. F1-Apo-depleted plasma (10.7 ml) containing 50 mM caproic acid, was applied at 0.4 ml/min (LV=30 cm/h; RT=5.1) onto a 2.0 ml column (CF=0.785 cm^2) that had been equilibrated with 0.14 M NaCl, 0.020 M sodium citrate, pH 7.0 (EQ buffer). After the column was washed with 19 CVs of EQ buffer to baseline, API protein was eluted with 2.0 M NaCl, 0.020 M sodium citrate, pH 6.0. The column was regenerated with 2.0 M guanidine-HCl, 2% Sarkosyl and 2% acetic acid and stored in 20% methanol.

albumin [2] = target: T2, albumin (Homo sapiens, UniProt P02768); test: Albumin in AKVSKG / D-WWLHIN evaluation (Example 7); type: binding; settings: for binding of albumin in plasma: initial evaluation
T2 construct: from tissue; host or cells: human plasma (fibrinogen-depleted or F1-Apo-depleted)
Protocol: as §1

API [3] = target: T1, API; test: Primary screening of 6-mer library for API-binding ligands; settings: bead screening, immunodetection / radiolabel
Protocol: Peptide libraries attached to Toyopearl-AF Amino 650M resin or Tentagel resin were evaluated with 14C-labeled fibrinogen and API. All steps were performed at room temperature. Specifically, 20 mg of Toyopearl resin beads or 40 mg of Tentagel resin beads were suspended in 20% methanol for a minimum of 2 hours in 15 ml conical polypropylene tubes (Corning). After rinsing with distilled water, the resin beads were equilibrated in 0.15 M NaCl, 0.020 M sodium citrate, pH 7.3. The resin beads were then blocked for 2 hours with 1% casein (Sigma) in 0.15M NaCl, 0.020M sodium citrate, pH 7.3. Following blocking, the resin beads were centrifuged and the supernatant removed. A solution containing 1 mM of C^14-labeled fibrinogen or 30 μM of C^14-labeled API was applied to the resin beads in the blocking solution in the presence of 0.1% Tween-20 (Sigma). The materials were incubated for 2 hours. The resin beads were washed with 0.15 M NaCl, 0.020 M sodium citrate, 0.05% Tween-20, pH 7.3, in a batch method (fibrinogen ligands) or in disposable BioRad 10 ml columns (API ligands) until radiation counts reached the background level of less than 40 DPM. The resin beads were divided into separate tubes to obtain approximately 5–10 mg of resin beads per sheet. This was accomplished by mixing each aliquot of resin beads with 20–22 ml of 1% low melting agarose solution (Sigma) at less than 40° C., and rapidly pouring the mixture onto GelBond® film sheets (BMA Cat. No. 53749, 16×18 cm; Cat. No. 53759, 12.5×24.5 cm). Spreading of the resin beads to the edge of the gel sheets was prevented by creating frames (about 23 cm×about 10 cm or about 15 cm×about 15 cm) with several layers of masking tape. About 20–22 ml of resin bead-agarose mixture was plated on each GelBond sheet. Special care was taken to spread the beads in an even monolayer to facilitate identification and isolation of individual “hot” beads. The agarose gel was then air-dried overnight and placed, bead side down, on X-ray film (Kodak Biomax MR). The agarose and autoradiography film were exposed for 4–14 days followed by a second exposure of 7 days in an about 20 cm×about 25 cm stainless steel cassette. Afterwards, the films were taped together and marked with several staple holes to ensure proper alignment of beads in agarose to film. After the films were developed, the positive beads that appeared on both films were identified under the microscope and picked by aligning the developed film(s) and agarose gel via the staple holes. Beads to be sequenced were carefully picked by cutting a square trench around the bead with a scalpel, and hydrating this area with distilled water. […]

API [4] = target: T1, API; test: Purification of API from F1-Apo-depleted plasma on HFVAPH column (Example 6); type: binding
Protocol: (§2) Fibrinogen and Apo-A1 lipoprotein-depleted plasma (prepared in Example 5) was loaded at a linear velocity of 30 cm/hour (0.4 ml/min; RT=5.1) onto 2.0 ml column (CF=0.785 cm^2) that had been equilibrated with 0.14 M NaCl, 0.020 M sodium citrate, pH 7.0 (EQ buffer). After the column was washed with EQ buffer and 2.0 M NaCl, 0.020 M sodium citrate, pH 6.0, to baseline, the API protein was eluted with 2.0 M NaCl, 1% Tween 20, 0.020 M sodium citrate, pH 6.0. The column was regenerated with 2.0 M guanidine-HCl, 2% Sarkosyl and 2% acetic acid and stored in 20% methanol. SDS-PAGE analysis of in-process samples (reduced and non-reduced samples) was performed using a Novex 8–16% gradient gel. Not all of the API was quantitatively eluted, but could be eluted using 2M guanidine. Purification of API protein to approximately 70% purity was accomplished with ligand HFVAPH (SEQ ID NO: 46) (isolated from an L-Library).

albumin [5] = target: T2, albumin; test: Albumin in HFVAPH column run (Example 6); type: binding
Protocol: as §2

Apo-A1 lipoprotein = target: T3, Apo-A1 lipoprotein (Homo sapiens, UniProt P02647); test: Apo-A1 lipoprotein purification from fibrinogen-depleted plasma on peptide resin column (Example 4); type: binding
T3 construct: from tissue; host or cells: human plasma (whole or fibrinogen-depleted)
T3 sequence (P02647 25-267 limits assumed): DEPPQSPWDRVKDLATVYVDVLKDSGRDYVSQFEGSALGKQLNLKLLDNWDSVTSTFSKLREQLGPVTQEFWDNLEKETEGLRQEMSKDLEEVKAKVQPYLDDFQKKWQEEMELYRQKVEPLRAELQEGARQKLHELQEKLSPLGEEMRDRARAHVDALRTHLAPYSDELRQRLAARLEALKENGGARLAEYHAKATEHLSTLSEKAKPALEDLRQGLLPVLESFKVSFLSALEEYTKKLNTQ
Protocol: Apo-A1 lipoprotein purification was accomplished with D-WWLHIN (SEQ ID NO: 33) peptides and several analogs. Indeed, about 100% Apo-A1 lipoprotein depletion from plasma was repeatedly obtained with D-WWLHAN (SEQ ID NO: 56) and D-WWLHIN (SEQ ID NO: […]). Fourteen milliliters of fibrinogen-depleted plasma was loaded onto a 2.3 ml column (CF=0.785 cm^2) at 0.4 ml/min. (LV=30 cm/H; RT=5.8) that had been equilibrated with 0.14 M NaCl, 0.020 M sodium citrate, pH 7.0 (EQ buffer). After the column was washed with EQ buffer to baseline, Apo-A1 lipoprotein was eluted with 2.0 M NaCl, 1% Tween-20, 0.020M sodium citrate, pH 7.0. The column was regenerated with 2.0 M guanidine-HCl, 2% Sarkosyl, and 2% acetic acid and stored in 20% methanol.

[6] = Elution Pool (without dialysis)

With “AKVSKG ([dA]KVSKG; not fully specified (residues 2, 3, 4, 5))” the “captured API protein recovered” value (API [1]; 2.0 M NaCl elution pool, nephelometric analysis) was 71%, the API (API [1]; Elution (1% Tween)) was 0.05 mg/mL and the “Total API” value (API [1]; Elution (1% Tween)) was 0.5 mg. The API (API [1]; Elution (2 M NaCl)) was 0.76 mg/mL, the “Total API” value (API [1]; Elution (2 M NaCl)) was 7.6 mg and the “Total API” value (API [1]; Flow through + Post Wash, load 12.7 mg) was 2.0 mg. For the same substance, the API (API [1]; Flow through + Post Wash, plasma load 10.7 ml, 1.19 mg/ml, 50 mM caproic acid) was 0.07 mg/mL, the API (API [1]; Wash (0.3 M NaCl)) was 0.11 mg/mL and the “Total API” value (API [1]; Wash (0.3 M NaCl)) was 1.3 mg. The API (API [1]; Wash, first 2.0 ml fraction) was 0.06 mg/mL, the “Total API” value (API [1]; Wash, first 2.0 ml fraction) was 0.1 mg and the API (API [1]; Wash, second 2.0 ml fraction) was less than 0.04 mg/mL. The “purity of the API eluate” value (API [1]; densitometric analysis) was 85%, the Albumin (albumin [2]; Elution (1% Tween)) was less than 0.02 mg/mL and the Albumin (albumin [2]; Flow through + Post Wash, nephelometric determination, load 20 mg/ml) was 7.8 mg/mL. For the same substance, the Albumin (albumin [2]; Wash (0.3 M NaCl)) was 0.63 mg/mL, the Albumin (albumin [2]; Wash, first 2.0 ml fraction) was 0.14 mg/mL and the Albumin (albumin [2]; Wash, second 2.0 ml fraction) was 0.06 mg/mL. For the same substance, the “capture of albumin from F1-Apo depleted plasma” value (albumin [2]; in the presence of 50 mM caproic acid) was “prevented”, the “binding of albumin in plasma” value (albumin [2]) was “binds albumin in addition to API protein” and the “identified as API-binding peptide ligand from the 6-mer library” value (shortened to “identified as API-binding peptide ligand”) (API [3]) was “API-binding”.

In the case of HFVAPH, the “purity of purified API protein” value (API [4]) is reported as “approximately 70%”, the API (API [4]; 2 M Guanidine #23) is reported as 0.1 mg/mL and the “Total API” value (API [4]; 2 M Guanidine #23) is reported as 0.4 mg. The “Total API” value (API [4]; Elution Pool (with dialysis)) was 1.2 mg, the API (API [4]; Elution Pool (with dialysis), 2.0 M NaCl, 1% Tween 20) was 0.15 mg/mL and the “Total API” value (API [4]; [6]) was 1.68 mg. The API (API [4]; Elution Pool (without dialysis), 2.0 M NaCl, 1% Tween 20) was 0.21 mg/mL, the “Total API” value (API [4]; Flow through, load 7.03 mg) was 3.36 mg and the API (API [4]; Flow through, load 9.5 ml, 0.74 mg/ml) was 0.21 mg/mL. It also gave an API (API [4]; Postwash) of less than 0.04 mg/mL, an Albumin (albumin [5]; 2 M Guanidine #23) of less than 0.02 mg/mL and an Albumin (albumin [5]; Elution Pool (with dialysis)) of less than 0.02 mg/mL. For the same substance, the Albumin (albumin [5]; [6]) was less than 0.02 mg/mL, the Albumin (albumin [5]; Flow through, load 22.6 mg/ml) was 12.6 mg/mL and the Albumin (albumin [5]; Postwash) was 0.93 mg/mL. The “albumin binding from plasma” value (albumin [5]; in the presence of sodium citrate) was “does not bind albumin” and the “identified as API-binding peptide ligand” value (API [3]) was “API-binding”.

With “WWLHIN ([dW]WLHIN; not fully specified (residues 2, 3, 4, 5, 6)) [D-WWLHIN]” the “Apo-A1 lipoprotein depletion from plasma” value (Apo-A1 lipoprotein) was “about 100%”, the “capture of albumin from F1-Apo depleted plasma” value (albumin [2]; in the presence of 1.0–2.2 M NaCl) was “prevented” and the “binding of albumin in plasma” value (albumin [2]) was “binds albumin in addition to API protein”. The “identified as API-binding peptide ligand” value (API [3]) was “API-binding”.
